{"source": "patent US20030049729A1", "molecular_target": "plasminogen", "assay": "cell-based or functional assay"}
{"substance": "Bacteriophages which harbored K2S on gpIII (K2S-phi; printed with a garbled symbol as K2S-?) (from UniProt P00750 209-562)", "values": [{"measurement": "fibrinogen-dependent enzymatic activity", "result": "< 0.25", "unit": "IU/ml"}]}
